According to publication PMC4756836 (Nucleic Acids Research, 2015):

Molecular target: the molecule itself
Assay: crystal structure

B1: yeast mitochondrial threonyl-tRNA synthetase MST1 (enzyme, S. cerevisiae)
chain: QDLFMTDPLSPGSMFFLPNGAKIFNKLIEFMKLQQKFKFGFNEVVTPLIYKKTLWEKSGHWENYADDMFKVETTDEEKEEYGLKPMNCPGHCLIFGKKDRSYNELPLRFSDFSPLHRNEASGALSGLTRLRKFHQDDGHIFCTPSQVKSEIFNSLKLIDIVYNKIFPFVKGGSGAESNYFINFSTRPDHFIGDLKVWNHAEQVLKEILEESGKPWKLNPGDGAFYGPKLDIMVTDHLRKTHQVATIQLDFQLPERFDLKFKDQDNSYKRPIMIHRATFGSIERFMALLIDSNEGRWPFWLNPYQAVIIPVNTKNVQQLDMCTALQKKLRNELEADDMEPVPLNDWHFNVDLDIRNEPVGYRIKSAILKNYSYLIIVGDEEVQLQKYNIRERDNRKSFEKLTMSQIWEKFIELEKNYK
- stoichiometry N: 2
